Response data for 9 variants are collected here from publication PMC5440646, “T Cell Costimulation by CD6 Is Dependent on Bivalent Binding of a GADS/SLP-76 Complex” (Molecular and Cellular Biology, 2017).

B1: human CD6 fused to EGFP [human] / SH2 domain-containing leukocyte molecule of 76 kDa (SLP-76), endogenous [human (endogenous in Jurkat)] (parent)
chain 1: MALRNVPFRSEVLGWDPDSLADYFKKLNYKDCEKAVKKYHIDGARFLNLTENDIQKFPKLRVPILSKLSQEINKNEERRSIFTRKPQVPRFPEETESHEEDNGGWSSFEEDDYESPNDDQDGEDDGDYESPNEEEEAPVEDDADYEPPPSNDEEALQNSILPAKPFPNSNSMYIDRPPSGKTPQQPPVPPQRPMAALPPPPAGRNHSPLPPPQTNHEEPSRSRNHKTAKLPAPSIDRSTKPPLDRSLAPFDREPFTLGKKPPFSDKPSIPAGRSLGEHLPKIQKPPLPPTTERHERSSPLPGKKPPVPKHGWGPDRRENDEDDVHQRPLPQPALLPMSSNTFPSRSTKPSPMNPLPSSHMPGAFSESNSSFPQSASLPPYFSQGPSNRPPIRAEGRNFPLPLPNKPRPPSPAEEENSLNEEWYVSYITRPEAEAALRKINQDGTFLVRDSSKKTTTNPYVLMVLYKDKVYNIQIRYQKESQVYLLGTGLRGKEDFLSVSDIIDYFRKMPLLLIDGKNRGSRYQCTLTHAAGYP
chain 2: HPSPAPPDQLNTSSAESELWEPGERLPVRLTNGSSSCSGTVEVRLEASWEPACGALWDSRAAEAVCRALGCGGAEAASQLAPPTPELPPPPAAGNTSVAANATLAGAPALLCSGAEWRLCEVVEHACRSDGRRARVTCAENRALRLVDGGGACAGRVEMLEHGEWGSVCDDTWDLEDAHVVCRQLGCGWAVQALPGLHFTPGRGPIHRDQVNCSGAEAYLWDCPGLPGQHYCGHKEDAGAVCSEHQSWRLTGGADRCEGQVEVHFRGVWNTVCDSEWYPSEAKVLCQSLGCGTAVERPKGLPHSLSGRMYYSCNGEELTLSNCSWRFNNSNLCSQSLAARVLCSASRSLHNLSTPEVPASVQTVTIESSVTVKIENKESRELMLLIPSIVLGILLLGSLIFIAFILLRIKGKYALPVMVNHQHLPTTIPAGSNSYQPVPITIPKEVFMLPIQVQAPPPEDSDSGSDSDYEHYDFSAQPPVALTTFYNSQRHRVTDEEVQQSRFQMPPLEEGLEELHASHIPTANPGHCITDPPSLGPQYHPRSNSESSTSSGEDYCNSPKSKLPPWNPQVFSSERSSFLEQPPNLELAGTQPAFSAGPPADDSSSTSSGEWYQNFQPPPQPPSEEQFGCPGSPSPQPDSTDNDDYDDISAA
B2: human CD6 fused to EGFP [human] / GRB2-related adaptor downstream of Shc (GADS), endogenous [human (endogenous in Jurkat)] (parent)
chain 1: MEAVAKFDFTASGEDELSFHTGDVLKILSNQEEWFKAELGSQEGYVPKNFIDIQFPKWFHEGLSRHQAENLLMGKEVGFFIIRASQSSPGDFSISVRHEDDVQHFKVMRDNKGNYFLWTEKFPSLNKLVDYYRTNSISRQKQIFLRDRTREDQGHRGNSLDRRSQGGPHLSGAVGEEIRPSMNRKLSDHPPTLPLQQHQHQPQPPQYAPAPQQLQQPPQQRYLQHHHFHQERRGGSLDINDGHCGTGLGSEMNAALMHRRHTDPVQLQAAGRVRWARALYDFEALEDDELGFHSGEVVEVLDSSNPSWWTGRLHNKLGLFPANYVAPMTR
chain 2: B1 chain 2
B3: human CD6 fused to EGFP [human] / T cell-specific adaptor protein (TSAd), endogenous [human (endogenous in Jurkat)] (parent)
chain 1: not shown
chain 2: B1 chain 2

One experiment covers variants of B1. The experiment in a line: co-immunoprecipitation (anti-CD6 IP), Western blot densitometry. To be noted: with SH2 domain-containing leukocyte molecule of 76 kDa (SLP-76), Jurkat cells, 3 × 10^6 cells per sample, pervanadate treated, CD6 MAb (MEM-98), three experiments, read off a plot. Background: In western blotting, separated proteins are transferred to a membrane and probed.
With chain 2 Y612F, the response is 6.4 AU.

For the variant chain 2 Y612F Y645F, the response came to 0.5 AU.

Regarding chain 2 Y645F, the response was found to be 1.5 AU.

In another experiment the parent is B2. The experiment is described as above. The following applies: with GRB2-related adaptor downstream of Shc (GADS), Jurkat cells, 3 × 10^6 cells per sample, pervanadate treated, CD6 MAb (MEM-98), three experiments, read off a plot.
With chain 2 Y645F, the response turned out to be 9.1 AU.

chain 2 Y612F Y645F: the response was 0.9 AU.

Take chain 2 Y612F: the response is 10 AU.

A further experiment covers variants of B3. The experiment is described as above. The following applies: with T cell-specific adaptor protein (TSAd), Jurkat cells, 3 × 10^6 cells per sample, pervanadate treated, CD6 MAb (MEM-98), three experiments, read off a plot.
Take chain 2 Y612F Y645F: the response was 4.4 AU.

Regarding chain 2 Y645F, the response is 5.2 AU.

As to chain 2 Y612F, the response was 8.8 AU.
